Ends that are not written are not given here.
What was measured:
[1] = target: T1, GST-β3cyto (GST fusion protein of the β3 integrin cytoplasmic domain) (UniProt P05106 742-788); experiment: phosphorylated phage binding, β3 colonies / BSA colonies
T1 construct: domain: cytoplasmic domain; Recombinant GST fusion coated on microtiter wells; also called β3-GST; β3 cytoplasmic domain fusion protein; not shown: glutathione S-transferase (GST) fusion partner
Experimental: (§1) Phosphorylation of peptide libraries with src family protein kinases (Fyn, c-Src, Lyn, and Syc) and serine/threonine kinases such as a MAP kinase were performed as described previously (Schmitz et al., 1996; Dente et al., 1997; Gram et al., 1997). Briefly, phage particles were collected from culture supernatants by double precipitation with 20% polyethylene glycol 8000 in 2.5 M NaCl. Particles were dissolved at 10¹² particles/ml. Purified phage (10 μl) were incubated for 3 hours at room temperature with different concentrations (35 to 3,500 units) of protein kinases in a reaction buffer volume of 50 μl. The reaction mixtures were transferred to tubes containing 10 μg of agarose-conjugated anti-P-Tyr, anti-P-Ser, or anti-P-Thr monoclonal antibodies to select phage displaying phosphorylated peptides. Bound phage were eluted by washing the column with 0.3 ml of elution buffer (0.1 M NaCl/glycine/1 mg/ml BSA, pH 2.35). The eluates were neutralized with 2 M Tris-base and incubated with 2 ml of a mid-log bacteria culture.
(§2) Amino acid sequences of the phagemid encoded peptides were deduced from nucleotide sequences.

[2] = target: T1, GST-β3cyto (GST fusion protein of the …); experiment: phosphorylated phage binding, β3 colonies / GST colonies
Experimental: as §1, §2

[3] = target: T1, GST-β3cyto (GST fusion protein of the …); experiment: phage binding to β3, colonies with Fyn-phosphorylated phage / unphosphorylated phage
Experimental: as §1, §2

T1 sequence (P05106 742-788): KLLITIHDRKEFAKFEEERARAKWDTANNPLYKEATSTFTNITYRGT

With RAILYRLAN (not fully specified (residue 5); also: displayed on phage, whole phage tested) [Fyn-phosphorylated phage displaying RAILYRLAN (SEQ ID NO:116)] the “β3 or β5/BSA” value [1] was 20 ratio, the “β3 or β5/GST” value [2] was 1.3 ratio and the Phos/Unphos [3] was 2.8 ratio.

— patent US20040170955A1 (University of Texas, published 2004)
